Measurements from patent US20220305098.

Target: T1, S5a protein (Ube3a target protein), P55036
T1 chain: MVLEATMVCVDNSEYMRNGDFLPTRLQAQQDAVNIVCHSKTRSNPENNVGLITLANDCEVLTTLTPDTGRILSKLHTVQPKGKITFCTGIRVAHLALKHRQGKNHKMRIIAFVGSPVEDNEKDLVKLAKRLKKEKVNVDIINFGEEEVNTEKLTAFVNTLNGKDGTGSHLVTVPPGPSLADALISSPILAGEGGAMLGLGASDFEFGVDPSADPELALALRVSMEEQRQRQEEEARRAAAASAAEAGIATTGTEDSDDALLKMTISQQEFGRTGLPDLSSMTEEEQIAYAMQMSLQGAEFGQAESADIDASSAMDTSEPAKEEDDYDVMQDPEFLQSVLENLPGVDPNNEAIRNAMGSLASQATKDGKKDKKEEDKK

B1: Human Ube3a isoform 1 with 8xN-glycan sites and IL2 secretion signal (expressed from the hAS8 lentiviral vector) (protein)
chain: MKRAAAKHLIERYYHQLTEGCGNEACTNEFCASCPTFLRMDNNTAAIKALELYKINAKLCDPHPSKKGASSAYLENSTGAPNNTCSEIKMNKKGARIDFKDVTYLTEEKVYEILELCREREDYSPLIRVIGRVFSSAEALVQSFRKVKQHTKEELKSLQAKDEDKDEDEKEKAACSAAAMEEDSEASSSRIGDSSQGDNNTQKLGPDDVSVDIDAIRRVYTRLLSNEKIETAFLNALVYLSPNVECDLTYHNVYSRDPNYLNLFIIVMENRNLHSPEYLEMALPLFCKAMSKLPLAAQGKLIRLWSKYNADQIRRMMETFQQLITYKVISNEFNSTNLVNDDDAIVAASKCLKMVYYANVVGGEVDTNHNEEDDEEPIPESSELTLQELLGEERRNKKGPRVDPLETELGVKTLDCRKPLIPFEEFINEPLNEVLEMDKDYTFFKVETENKFSFMTCPFILNAVTKNLGLYYDNRIRMYSERRITVLYSLVQGQQLNPYLRLKVRRDHIIDDALVRLEMIAMENPADLKKQLYVEFEGEQGVDEGGVSKEFFQLVVEEIFNPDIGMFTYDNSTKLFWFNPSSFETEGQFTLIGIVLGLAIYNNTILDVHFPMVVYRKLMGKKGTFRDLGDSHPVLYQSLKDLLEYEGNVEDDMMITFQISQTDLFGNPMMYDLKENGDKIPITNENRKEFVNLYSDYILNKSVEKQFKAFRRGFHMVTNESPLKYLFRPEEIELLICGSRNLDFQALEETTEYDGGYTRDSVLIREFWEIVHSFTDEQKRLFLQNNTGTDRAPVGGLGKLKMIIAKNGPDTERLPTSHTCFNVLLLPEYSSKEKLKERLLKAITYAKGFGML
- ubiquitination activity of the Ube3a S5a target protein (blot, bands of ubiquitinated S5A): different mutated forms of Ube3a ubiquitinate their S5A target
